Series [1] concerns the molecule itself. Put plainly: SAXS.
Series [2] deals with the molecule itself. Kind of series: negative staining EM.

A word on the stoichiometry N: it is the number of molecules, sites or subunits per partner or assembly.

Several values for one entry are separate records, joined by “and”; a condition that tells them apart may be missing. Equal values may be shown once.

B1: Twinkle (human mitochondrial replicative helicase), mature, aa 43-684, produced in E. coli (enzyme, UniProt Q96RR1 43-684, looked up)
chain: ETLQALDMPVLPVTATEIRQYLRGHGIPFQDGHSCLRALSPFAESSQLKGQTGVTTSFSLFIDKTTGHFLCMTSLAEGSWEDFQASVEGRGDGAREGFLLSKAPEFEDSEEVRRIWNRAIPLWELPDQEEVQLADTMFGLTKVTDDTLKRFSVRYLRPARSLVFPWFSPGGSGLRGLKLLEAKCQGDGVSYEETTIPRPSAYHNLFGLPLISRRDAEVVLTSRELDSLALNQSTGLPTLTLPRGTTCLPPALLPYLEQFRRIVFWLGDDLRSWEAAKLFARKLNPKRCFLVRPGDQQPRPLEALNGGFNLSRILRTALPAWHKSIVSFRQLREEVLGELSNVEQAAGLRWSRFPDLNRILKGHRKGELTVFTGPTGSGKTTFISEYALDLCSQGVNTLWGSFEISNVRLARVMLTQFAEGRLEDQLDKYDHWADRFEDLPLYFMTFHGQQSIRTVIDTMQHAVYVYDICHVIIDNLQFMMGHEQLSTDRIAAQDYIIGVFRKFATDNNCHVTLVIHPRKEDDDKELQTASIFGSAKASQEADNVLILQDRKLVTGPGKRYLQVSKNRFDGDVGVFPLEFNKNSLTFSIPPKNKARLKKIKDDTGPVAKKPSSGKKGATTQNSEICSGQAPTPDQPDTSKRSK
For the protein B1, the entries for the “stoichiometry N” value in series [1] and in series [2] were 7 and 6, respectively.

B2: Twinkle (human mitochondrial replicative helicase), aa 30-684, produced in SF9 insect cells (enzyme, UniProt Q96RR1 30-684, looked up)
chain: NLAPGPPRRRYRKETLQALDMPVLPVTATEIRQYLRGHGIPFQDGHSCLRALSPFAESSQLKGQTGVTTSFSLFIDKTTGHFLCMTSLAEGSWEDFQASVEGRGDGAREGFLLSKAPEFEDSEEVRRIWNRAIPLWELPDQEEVQLADTMFGLTKVTDDTLKRFSVRYLRPARSLVFPWFSPGGSGLRGLKLLEAKCQGDGVSYEETTIPRPSAYHNLFGLPLISRRDAEVVLTSRELDSLALNQSTGLPTLTLPRGTTCLPPALLPYLEQFRRIVFWLGDDLRSWEAAKLFARKLNPKRCFLVRPGDQQPRPLEALNGGFNLSRILRTALPAWHKSIVSFRQLREEVLGELSNVEQAAGLRWSRFPDLNRILKGHRKGELTVFTGPTGSGKTTFISEYALDLCSQGVNTLWGSFEISNVRLARVMLTQFAEGRLEDQLDKYDHWADRFEDLPLYFMTFHGQQSIRTVIDTMQHAVYVYDICHVIIDNLQFMMGHEQLSTDRIAAQDYIIGVFRKFATDNNCHVTLVIHPRKEDDDKELQTASIFGSAKASQEADNVLILQDRKLVTGPGKRYLQVSKNRFDGDVGVFPLEFNKNSLTFSIPPKNKARLKKIKDDTGPVAKKPSSGKKGATTQNSEICSGQAPTPDQPDTSKRSK
In the case of B2, the “stoichiometry N” value in series [2] was 6 and 7.

(Values after PMC4417153 (Nucleic Acids Research, 2015).)
